Assay results published in patent US20060035329A1 (CARNEGIE INSTITUTION OF WASHINGTON, published 2006).
Blank lines part the entries; values can stand above or below the molecule they belong to.

How the values were obtained:
[1] = target: LexA-hr (hr amino acids 575-1215 fused to the lexA DNA binding domain) (rat); assay: yeast two-hybrid, β-galactosidase activity with TRIAC (10^-6 M) against without hormone
[2] = target: TR (thyroid hormone receptor co-expressed with hr in the reporter assay); assay: cell-based or functional assay
[3] = target: T1, hr fusion protein (hr amino acids 575-1215 fused to either GST or TrpE; which one is not said) (rat, UniProt P97609 549-1181); assay: far western, 35S-labeled probe on immobilized hr fusion protein
T1 construct: also called the hr fusion protein; not shown: fusion partner is GST or TrpE
T1 sequence: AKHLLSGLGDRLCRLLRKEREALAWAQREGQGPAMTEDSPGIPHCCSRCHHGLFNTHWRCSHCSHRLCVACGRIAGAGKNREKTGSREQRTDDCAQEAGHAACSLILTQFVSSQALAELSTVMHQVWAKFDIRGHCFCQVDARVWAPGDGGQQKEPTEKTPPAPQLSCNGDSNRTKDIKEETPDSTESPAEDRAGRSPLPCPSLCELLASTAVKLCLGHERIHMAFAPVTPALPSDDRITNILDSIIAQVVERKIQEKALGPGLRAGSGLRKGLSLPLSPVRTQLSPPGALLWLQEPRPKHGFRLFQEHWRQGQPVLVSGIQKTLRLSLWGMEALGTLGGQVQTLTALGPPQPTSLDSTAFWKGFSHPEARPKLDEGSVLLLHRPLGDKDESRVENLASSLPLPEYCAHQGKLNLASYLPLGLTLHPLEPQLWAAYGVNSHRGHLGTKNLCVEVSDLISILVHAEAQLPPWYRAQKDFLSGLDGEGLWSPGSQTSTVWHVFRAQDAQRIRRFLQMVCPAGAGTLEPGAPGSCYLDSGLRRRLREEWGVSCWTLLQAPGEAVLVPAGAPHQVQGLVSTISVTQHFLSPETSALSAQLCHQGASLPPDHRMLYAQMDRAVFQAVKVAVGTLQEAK

Molecule: TRα1 (as tested in the two-hybrid assay) (receptor)
fold reduction of interaction by hormone [1]: 2 fold

B2: 35S-RXR (retinoid X receptor, from pCMX hRXRα) (receptor, human, UniProt P19793 1-462, looked up)
chain: MDTKHFLPLDFSTQVNSSLTSPTGRGSMAAPSLHPSLGPGIGSPGQLHSPISTLSSPINGMGPPFSVISSPMGPHSMSVPTTPTLGFSTGSPQLSSPMNPVSSSEDIKPPLGLNGVLKVPAHPSGNMASFTKHICAICGDRSSGKHYGVYSCEGCKGFFKRTVRKDLTYTCRDNKDCLIDKRQRNRCQYCRYQKCLAMGMKREAVQEERQRGKDRNENEVESTSSANEDMPVERILEAELAVEPKTETYVEANMGLNPSSPNDPVTNICQAADKQLFTLVEWAKRIPHFSELPLDDQVILLRAGWNELLIASFSHRSIAVKDGILLATGLHVHRNSAHSAGVGAIFDRVLTELVSKMRDMQMDKTELGCLRAIVLFNPDSKGLSNPAEVEALREKVYASLEAYCKHKYPEQPGRFAKLLLRLPALRSIGLKCLEHLFFFKLIGDTPIDTFLMEMLEAPHQMT
modifications: 35S-methionine label
binding result [3]: no binding

The remaining lines, values ahead:

thyroid hormone induced transcription (TRE-containing reporter) [2]: 2 fold
Molecule: hr (hairless gene product expressed from an expression construct containing the hr gene) (from UniProt P97609 1-1181)

binding result [3]: no binding
B1: 35S-RAR (retinoic acid receptor, from pCMX hRARα) (receptor, human, UniProt P10276 1-462, looked up)
chain: MASNSSSCPTPGGGHLNGYPVPPYAFFFPPMLGGLSPPGALTTLQHQLPVSGYSTPSPATIETQSSSSEEIVPSPPSPPPLPRIYKPCFVCQDKSSGYHYGVSACEGCKGFFRRSIQKNMVYTCHRDKNCIINKVTRNRCQYCRLQKCFEVGMSKESVRNDRNKKKKEVPKPECSESYTLTPEVGELIEKVRKAHQETFPALCQLGKYTTNNSSEQRVSLDIDLWDKFSELSTKCIIKTVEFAKQLPGFTTLTIADQITLLKAACLDILILRICTRYTPEQDTMTFSDGLTLNRTQMHNAGFGPLTDLVFAFANQLLPLEMDDAETGLLSAICLICGDRQDLEQPDRVDMLQEPLLEALKVYVRKRRPSRPHMFPKMLMKITDLRSISAKGAERVITLKMEIPGSMPPLIQEMLENSEGLDTLSGQPGGGGRDGGGLAPPPGSCSPSLSPSSNRSSPATHSP
modifications: 35S-methionine label
